Substrate in the series: O=C1OC(c2ccc(O)c(S(=O)(=O)O)c2)(c2ccc(O)c(S(=O)(=O)O)c2)c2c(Br)c(Br)c(Br)c(Br)c21
The experiment in a line: TP_TRANSPORTER: uptake (no BSA) in Xenopus laevis oocytes. In kind it is functional, cell-based, Oocyte.

B1: Solute carrier organic anion transporter family member 1A1 (Rattus norvegicus) (protein)
chain: MEETEKKIATQEGRLFSKMKVFLLSLTCACLTKSLSGVYMNSMLTQIERQFDISTSVAGLINGSFEIGNLFFIVFVSYFGTKLHRPVVIGIGCVIMGLGCLLMSLPHFFMGRYEYETTISPTGNLSSNSFLCMENRTQTLKPTQDPAECVKEMKSLMWICVMVGNIIRGIGETPIVPLGISYIEDFAKSENSPLYIGILEMGKVAGPIFGLLLGSYCAQIYVDIGSVNTDDLTITPSDTRWVGAWWIGFLVCAGVNILTSIPFFFLPKALPKKGQQENVAVTKDGKVEKYGGQAREENLGITKDFLTFMKRLFCNPIYMLFILTSVLQVNGFINKFTFLPKYLEQQYGKSTAEAIFLIGVYSLPPICLGYLIGGFIMKKFKITVKKAAYLAFCLSVFEYLLFLCHFMLTCDNAAVAGLTTSYKGVQHQLHVESKVLADCNTRCSCSTNTWDPVCGDNGVAYMSACLAGCKKFVGTGTNMVFQDCSCIQSLGNSSAVLGLCKKGPECANRLQYFLILTIIISFIYSLTAIPGYMVFLRCVKSEEKSLGVGLHTFCIRVFAGIPAPVYFGALIDRTCLHWGTLKCGQRGACRMYDINSFRHIYLGLPIALRGSSYLPAFFILILMRKFQFPGDIDSSATDHTEMMLGEKESEHTDVHGSPQVENDGELKTKL
On to B1, for which the Km – broadly, the concentration of substrate that gives half-maximal velocity – was 1.5 µM.

For the origin of these results see ChEMBL document CHEMBL2074123, “Expression cloning of a rat liver Na(+)-independent organic anion transporter” (Proc Natl Acad Sci U S A, 1994).
